Assay: soluble on expression in E. coli; label from the status in PepcDB or PDB records
For “MCVSSAVCVLSRLSLERFSNFSANFVDNFLLVARFARGETLKNGIVLEISKICPKLYISPVPKLFDCSTDNLLFIYILFASKVRMKEMSTPTGLPALNGDVLSAINDMIGRVIIINTTDKKRYSGVLGAVSQDFDFGMQCVVEITKENENNLLRTESECRDKMVFHYSDIVDFAYVTQEIKKQHAVSKFVTDRQYHGDTPIEGEELQEWNGGEEDGLGGSIEDDVVVAGGQTAARRSNNHNNGTGWSVNDMFAANEKMNVVSTFKEDLTQYTTVEVVGTDEDRARAERLAREIESNSSSKFMANLENDDDERDLDKITRQEDFENGNGRKRNNNSFNQQQQQRRNPNIAPNGQPVNRRAEGLRGDRRNSGSSSANNSRYGAPAAAQQNYSQNQQQQQGQKGYRRQNEENDWQMAKGKGQNQGHDHSFRQQQKQMLDPRPNNNVKPADDKAQSATTATAAAGGSRVTDLKNWGNEFSIATAPKDQAPAVPAGNSGSAWNRGPPSSLVAKGSSNESTPPPTTNGEEAETKKEEAPSTSVDVAAAPVQNVQNDAEKHQEDDNVSVTSENDSVITSKSSSFKFNINAPEFKPRVAPATPTATTPVQNEYHPQQQPHPAMMAPQQGPPAPGMGMVPPHMGGPQNQGQPPMMMWQQTGQQQQGGGGYPQNHQFPIQHVPMQGVPGQMYGPGAATPVTVAQQPNQQHQVPTSAAGGQNHQLRDGEYREKQPLYMPYGPPQMVPVTSQQFYHSQYQGQMQQAAPYQMKMMPQQAPQGAYQQRYQQPQVYMMPPQGQQQQPRYQGPPPPQQQQQQQPQQQQFSGEQSRPQSHPNSQPTTPGPRGELPKMSGAPQNGNMQAESSSNASHSGSTSSQSGQRSGSPPGAVPPPPPPQQQHQQQQHPPHHAPPHVGAPPPQMMQQQQQHIQQYMQVFYPMIMPQQMPMQQNQHPQQSLMGERSDQGFPTSGYFDYRTMPNYQQQQQQQQQQMHRQNSLPQQFQGNQGVNPSGQQSGPPPPPPPSQQGTPRDQQHSQSPP”, the “soluble on expression in E. coli” value was “not soluble”. For “MCYHLIIDSFIDRISRMHTQRGLEVTTGSIEAVDSINYFHEQVLSSGQNAIQILDSAKKHTDNLLIQTYAAAFYLYAQEDVANEQASDYLQSAFRLLTSANEREKLIFEAVTNWSKRDYANAISLLVTLLERYPRDTLALKFMEWLFYCTGQAFNAEYFLKVCDKCAPENQDESHFLAIHSFALELCGQYSKAKEMAEEAITMNLLTPWAHHTLAHVHLLTSDITGGINRLRDLQKTWEDILPLLKGHNTWHLALFYLANRNEEEVKKLYPHISGALPDTVLEQLDTISLLWRMDMAGLPQDRLLNQVVDHLSTHPLEYYTGFTNAHFIYCLVKSGYKNEADESLKRMKFYACSPSSDALWGDVVLPLCQGIYAFADADYKTALMLMEPVIGECAQLGGSDAQIELFFQTYLLVLIHNKQKDKALQFFTEHLKYYNNTPLSDWWFQSANKA”, the “soluble on expression in E. coli” value was “not soluble”. For “MDAAKVRSEFDEKMMRYALELADKAEALGEIPVGAVLVDDARNIIGEGWNLSIVQSDPTAHAEIIALRNGAKNIQNYRLLNSTLYVTLEPCTMCAGAILHSRIKRLVFGASDYKTGAIGSRFHFFDDYKMNHTLEVTSGVLAEECSQKLSTFFQKRREEKKIEKALLKSLSDKLEHHHHHH”, the “soluble on expression in E. coli” value was “not soluble”. For “MDADVIVVGAGLAGLVAAHELTSRGRRVALVDQENAANLGGQAFWSFGGLFLVDSPEQRRLGVKDSLDLAWNDWQGSAGFDRTEDEDSWAVRWARAYVEWAAGEKRSWLAGHGITFLPTVGWAERGDLRAGGHGNSVPRFHIAWGTGTGVVEPFVRYAKQAARDGLLTFHHRHRVDHLVVEDGTARGVRGTVLAPDDSPRGVASSRDTAGEFELAAQAVIVTSGGIGADHDIVRRHWPERLGTPPAEMVTGVPAYVDGRMLGISAEAGARLVNRDRMWHYTEGVRNWDPIWPGHGIRILPGPSSMWFDALGRRLPEPYLPGYDTLGTLRHLRTAEGLAEHGHSWFVLTRKIIEKEFALSGSEQNPDITAKDRAGFLRERVLGKGAPGPVGAFLRHGADFVTAPDLEQLVEKMNRLTDKPLLDAAALRRQIEARDLQLANPYAKDAQVQGIRNARRYIGDRLGRVATPHRLLDPAAGPLIGVKLHILTRKTLGGIQTDLDSRALGADGTPVEGLYAAGEVAGFGGGGVHGYNALEGTFLGGCLFSGRAAGRAAARQTALEHHHHHH”, the “soluble on expression in E. coli” value was “not soluble”. For “MDAIFNNNFEKYKDDPEMTRALMTSKESLEDENWDTYLQWFKENKYEVLEVKEGKNKSTLTVKATFNSFADIPNDDVMGIIFTEVYKASKNKIKSLDEEDDIFDEEFMINVTNKLMDKSKKETKEIKVYMDKVNGKWDLIEDEDNDDDIVNMELISTMTPLLEKFLEITTEFEGFEGF”, the “soluble on expression in E. coli” value was “not soluble”. For “MDAIVMAGGFGQRLGMGEKPCVELLGKPLITYVIDNLRASKNIDRVFVAVSPVTPKTEIMIQERYKGEVQVIRTFGGNYVGDMIHAVETSNTAGPVMIIMSDLPLVNPDLIDSVIEKYREEGKPALSVYVPINVCRGTGTRPDTVFNKDGKLIVPAGVNILDSSQIRKEQEDFNLILDNPRLAINVNTVKDLQRCKDLLQCSN”, the “soluble on expression in E. coli” value was “soluble”. With “MDAPLAEQDLKALFLRHARQLQSYLLRKTRDPHLAADLAQESFLRLAEQRHKEPIEHVDAYLYRTAHNLTIDHYRQERRRRTETQPNDDLAGFVADQPGPEESAVDADALARLREIVAELPPRTREIFRLNRLEGLTHAEVARRLEISDSSVQKHLARTLAHVMQALEDSR” the “soluble on expression in E. coli” value was “not soluble”. In the case of “MDARIVNALIGSVYETIRDVLGIEPKTGKPSTVSHIEIPHSLVTVIGITGGIEGSLIYSFSSETALKVVSAMMGGMEYNQLDELALSAIGELGNMTAGKLAMKLEHLGKHVDITPPTVVSGRDLKIKSFGVILKLPISVFSEEDFDLHLSVKSGG”, the “soluble on expression in E. coli” value is reported as “soluble”. With “MDAVSKAAIRLLDTIGITGVTKVNTYAGPEQEYFLIDKKFYAQRPDLIMTGRTLLGALPPKGQQLEDHYFGSIPDRVLEFMQEVEEELFLLGIPAKTRHNEVAPHQFEIAPIFEQVNLASDHNLLVMEVMRKVADKKGFALLLFEKPFAGINGSGKHNNWSIGIDGGMNLLDPGDTPESNISFLVFLVAVLKGVLKRSAILRASVASIGNDHRLGANEAPPAVITVFLGDLLEKVLDAIESGKVDLKTEKQILDLGLSHVPVLNKDYTDRNRTSPFAFTGNKFEFRAVGSSQPISVPNMVLNTIMAEALDDLNAEILAKIEGGMAKEDAILAAVRDGIIATKAVRYPGDNYSEDLQRAAAERGLPNMKNTPESVRAWTDKDTVSMFVKYGVLTAEEIESRYNVRIERYVKGIDI” the “soluble on expression in E. coli” value was “not soluble”. With “MDDIVPDVLDAVPAGTIKVIYGDDLEVKQGNELTPTQVKDQPIVSWSGLEGKSNLLTLLMVDPDAPTRQDPKYREILHWSVVNIPGSNENPSGGHSLADYVGSGPPKDTGLHRYIFLLYRQENKIEETPTISNTTRTGRLNFNARDFAAKHGLGEPIAANYYQAQYDDYVPIRNKTIVG” the “soluble on expression in E. coli” value was “soluble”. For “MDDPNRIVSASRRPKALIRLLDSQQIEVVLHSRLSVEDVLRLVAEKVDLSFPDSQYFCLGFSDNLNNFHWLDGSVILYDLVASTSNPKGTLTLSHHVRFFVDTIYEVQCASTAKLFFFDIHNQLARHELLVTSEDYFELVAILVSVFVPDCQEHTTAEAISRIMPMSHPPYILLKTDQSEVERRVFEKFRYYRRLPVGTGMISFIKLAEKSESYGYRMYEALNENNDKCILSIGYKGIYIYRRSRHQNLITPYLAYPWRVIDNLYYRDKKFSIEIREPKNSLHSNSSIGTMPSAKIGDGSTSSLPMSSAKPMSTQTSEPQLPDVPEPNESLHNKTIDEFQKDQEKCDRLKARKAELEMRLRQKMQELKDVCVEEGDITGEMPVEINDVVLPGDDFPRLKRRVGTAYSIPDELIKADKADKMSQLETDVELHRRIVAAASRLATDKNTNKSVRKKRQKDLQAARLRLNRLEQGLQQMRHSASKPDISSLTSDSSNSWTASNSSGPMLTMAMTKSCPTTPRGSVPDLRNGLDDEKDEFDENVEDRVSRRAPSAISRHSLSQRYSGVSSSSTSSGSDSMGLGLPPRPTSRKSQQQQTTPFDDQLDNPMICEIPPPPSSAAAHPLLVTNLLSRGKTTGCRVLTEYYPVLKRIRTNY”, the “soluble on expression in E. coli” value was “not soluble”. With “MDDSTLRDRLEQLGLSEKEVDTYLSILSSGEATASEIADDTGVSKRYVYSISESLEDRGFVEVNDHVVPTTIRARPPEEVIDALTDRLEEMSGALDSRYSASAREPQQFDVIKSRVTVIKRLTEYIRNAEREIMLSVPQQYLPEISEELGAAVDRGVLVMLVVSSADNLRSDDASGLASVVRSWDQPMPIMLTVDAQFGLVSPAEMVTRTNSDQRAIAFVQQQLVPVLSGSFLGNYWLMATEVAVTDPAPLPATYHDFRHAVLQATLHLRADHDIHVSADVRAVQADDDTTTIEGTVVETKQGLVEPETNSYPIEHTLVVDIGDRTVSLGGSGSFLEDYETDAVTLSLAE” the “soluble on expression in E. coli” value was “not soluble”. In the case of “MDEKTKKAEEMALSLTRAVAGGDEQVAMKCAIWLAEQRVPLSVQLKPEVSPTQDIRLWVSVEDAQMHTVTIWLTVRPDMTVASLKDMVFLDYGFPPVLQQWVIGQRLARDQETLHSHGVRQNGDSAYLYLLSARNTSLNPQELQRERQLRMLEDLGFKDLTLQPRGPLEPGPPKPGVPQEPGRGQPDAVPEPPPVGWQCPGCTFINKPTRPGCEMCCRARPEAYQVPASYQPDEEERARLAGEEEALRQYQQRKQQQQEGNYLQHVQLDQRSLVLNTEPAECPVCYSVLAPGEAVVLRECLHTFCRECLQGTIRNSQEAEVSCPFIDNTYSCSGKLLEREIKALLTPEDYQRFLDLGISIAENRSAFSYHCKTPDCKGWCFFEDDVNEFTCPVCFHVNCLLCKAIHEQMNCKEYQEDLALRAQNDVAARQTTEMLKVMLQQGEAMRCPQCQIVVQKKDGCDWIRCTVCHTEICWVTKGPRWGPGGPGDTSGGCRCRVNGIPCHPSCQNCH”, the “soluble on expression in E. coli” value is reported as “soluble”. For “MDELRELLKAEQQAIKIYKEVLKKAKEGDEQELARLIQEIVKAEKQAVKVYKEAAEKARNPEKRQVIDKILEDEEKHIEWLKAASKQGNAEQFASLVQQILQDEQRHVEEIEKKN”, the “soluble on expression in E. coli” value was “soluble”. With “MDESVDPVELLLRLLIRHKPHLKPYAYRQDSWQRVLDEYNRQTGSRYRQSRTLKTKFRRLKDLFSADRAQFSPSQLKLMGALLDEAPEHPRPRTKFGNESSSSLSSSSFIKSHPGPDPFQQLSSAEHPNNHSSDDEHSGSQPLPLDSITIGIPPTLHTIPMILSKDNDVGKVIKSPKINKGTNRFSETVLPPQMAAEQSWSDSNMELEICLDYLHNELEVIKKRQEDFECKVLNKLNIIEALLSQMRPPSQGDKI” the “soluble on expression in E. coli” value was “soluble”. For “MDFKTVMQELEALGKERTKKIYISNGAHEPVFGVATGAMKPIAKKIKLNQELAEELYATGNYDAMYFAGIIADPKAMSESDFDRWIDGAYFYMLSDYVVAVTLSESNIAQDVADKWIASGDELKMSAGWSCYCWLLGNRKDNAFSESKISDMLEMVKDTIHHSPERTKSAMNNFLNTVAISYVPLHEKAVEIAKEVGIVEVKRDNKKSSLLNASESIQKELDRGRLGFKRKYVRC”, the “soluble on expression in E. coli” value was “soluble”. For “MDFLEKVLDNQVTESKELVRLYDYDLYTLGEVADRMRQNMHQKIVYFNVNRHLNPSNICADACKFCAFSAHRKNPNPYEMSLEEILEKVKNSYNKGIKEVHIVSAHNPNYSYEWYLKVFETIKQEMPNLHLKAMTAAEVHFLSVKFNKPFELVLEDMLKAGVDSMPGGGAEIFDEEIRRKICNGKVGSSRWLEIHAYWHKLGKMSNATMLFGHIENKIHRIDHMLRIKKIQSPKNQVENKEGGFNAFIPLLYQKENNYLNVEKSPSAIEILKTIAISRILLNNIPHIKAYWATLGLNLALVAQEFGANDLDGTIEIESIQSAAGAKSRHGLEKEDLIFKIKDAGFVAVERDSLYNFIQKF”, the “soluble on expression in E. coli” value was “not soluble”. With “MDFLQGDRGDYKSALGSLQQVGYGSVIAKIRLAFNATGSVLRKRVLKEEQIEETVAKELEERRRTWDVNNGQFDKFSQWYIEYRKNLWHKDDYLPWLLYENEISCLKLTFDVCERPPRRINYGGRNRYTCEN” the “soluble on expression in E. coli” value was “not soluble”.
